{"source": "paper PMC4022642", "biological_target": "GST fusion of human TRESK cytoplasmic loop (amino acids 174-280) (human) (UniProt Q7Z418)", "sequence (Q7Z418 other isoform, or with tags, fused parts or gaps)": "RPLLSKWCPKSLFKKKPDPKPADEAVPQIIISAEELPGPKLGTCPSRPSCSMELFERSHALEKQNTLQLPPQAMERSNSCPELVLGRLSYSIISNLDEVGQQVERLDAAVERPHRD", "test": "pull-down; GST-TRESK 174-280 on glutathione agarose; mouse brain cytosol; four pairs of independent assays; anti-tubulin β3 Western blot with densitometry (ImageJ)", "data": [{"substance": "tubulin (mouse brain cytosol) (from UniProt P05213 1-451; Q9ERD7 1-450) (complex)", "values": [{"measurement": "densitometry counts of the anti-tubulin β3 immunoblot", "value": 20500, "unit": "counts"}]}]}
